{
  "source": "paper PMC1409677",
  "binders": {"B1": {"name": "APT (thrombin aptamer with 12 nt 5' toehold) (structured_DNA)", "DNA": "TAAGTTCATCTCGGTTGGTGTGGTTGG"}},
  "molecular_target": "human alpha-thrombin (Homo sapiens, UniProt P00734;P00734 328-363;364-622)",
  "test": "FRET",
  "data": [
    {"binder": "B1", "values": [
      {"measurement": "binding result", "result": "binds"}
    ]}
  ]
}
